Three substances from patent US20120264231A1, “ASSAY FOR ORAI CALCIUM CHANNEL REGULATORS” (IMMUNE DISEASE INSTITUTE, INC., priority 2009, published 2012) can be followed below.

The target in one data set is T1, human ORAI1 (65-301) (Homo sapiens, UniProt Q96D31, E106Q/N223A).
T1 construct: human ORAI1 (65-301) with an N-terminal FLAG tag; made in house; host or cells: Pichia pastoris GS115 (microsomal membranes)
Put plainly: Pichia membrane flotation assay, membranes containing ORAI1 (65-301). In kind it is binding. The following applies: sucrose gradient, Western blotting. As to the method:
A membrane flotation assay was used to evaluate binding of these recombinant STIM 1 proteins to ORAI1. For these experiments ORAI1 (65-301) was expressed, an N-terminally truncated ORAI1 protein that forms functional Ca^2+ channels in mammalian cells (Li, Z., et al., J Biol Chem 282, 29448-29456 (2007)), in the yeast Pichia pastoris. Microsomal membranes were prepared from P pastoris expressing ORAI1 (65-301), layered at the bottom of a discontinuous sucrose gradient, and centrifuged. After centrifugation, the recombinant ORAI 1 was recovered near the top of the gradient in the fraction visually identified as containing membranes (FIG. 2A), as expected for an integral membrane protein.
STIM 1, ORAI 1, and D3 cpV/D4 cpV expression constructs were engineered as described herein. Recombinant STIM 1 fragments were expressed in E coli, purified, and characterized by CD spectroscopy and SEC-MALLS. Binding of STIM 1 fragments to ORAI1 channels in their normal bilayer environment was assessed in a flotation assay, using microsomal membranes prepared from the yeast P pastoris and containing human ORAI1 (65-301). Binding of STIM1 fragments to recombinant ORAI^CT was assessed in a pulldown assay using GST-tagged ORAI1^CT.
P pastoris strain GS115 was transformed with SalI-linearized pPIC3.5K-ORAI1 by electroporation and selected on plates lacking histidine. H is transformants were further grown in the presence of 0.25-4 mg/mL G418 to select for yeast that had integrated multiple copies of pPIC3.5K into the genome. Selected colonies capable of growth on 0.5-4 mg/mL G418 were grown in small-scale culture, induced with methanol as detailed below, and their level of ORAI expression determined by Western blotting for the FLAG tag. P pastoris transformants were grown in minimal dextrose medium lacking histidine and induced with 0.5% methanol for 6-18 h. Cells were pelleted at 3,000×g for 15 min at 4° C. and resuspended in breaking buffer containing 50 mM sodium phosphate, 1 mM TCEP, 1 mM EDTA, 5% glycerol and complete protease inhibitor cocktail (Roche). […]
(Immunoblotting shows a protein as a band on a membrane.)

The next data set can be described thus: CD thermal unfolding. In kind it is physicochemical. Particulars: CD signal at 222 nm, 20 μM protein, pH 7.5. On the procedure: CD spectra of STIM 1^CT fragments were recorded in a Jasco-810 spectropolarimeter at 25° C. using a 1-mm path length quartz cell with the protein concentration at 20 μM in 10 mM Tris-HCl, 150 mM KCl, 1 mM DTT at pH 7.5. All spectra were obtained as the average of at least ten scans with a scan rate of 50 nm/min. The ellipticity was measured from 190 to 260 nm and converted to mean residue molar ellipticity (deg cm^2 dmol^−1 res^−1). The calculation of secondary structure elements was performed by using DICHROWEB, an online server for protein secondary structure analyses (Whitmore, L. & Wallace, B. A. Nucleic Acids Res 32, W668-W673 (2004)). Thermal unfolding measurements were performed using a 1 mm quartz cell with a protein concentration of 20 μM in the same buffer. To obtain the thermal transition point, the signal changes at 222 nm were fitted using the equation: ΔS=ΔSmax/[…]), where ΔS and ΔSmax are the signal changes at each data point and at the final data point, Tm and T are the transition temperature and experimental temperature, respectively, and k represents the transition rate.

T1 sequence (Q96D31 65-301 E106Q/N223A): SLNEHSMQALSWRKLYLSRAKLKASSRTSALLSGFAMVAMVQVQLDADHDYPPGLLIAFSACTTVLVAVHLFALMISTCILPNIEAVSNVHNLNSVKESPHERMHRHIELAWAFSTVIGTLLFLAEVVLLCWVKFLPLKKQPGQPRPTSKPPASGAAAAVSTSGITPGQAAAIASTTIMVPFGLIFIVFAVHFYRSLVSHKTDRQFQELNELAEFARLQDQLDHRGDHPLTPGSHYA

As for “STIM1 (233-463): truncated mouse STIM1 cytoplasmic fragment, residues 233-463, His-tagged recombinant protein”, in the data set with human ORAI1 (65-301), the “binding to ORAI1 in membrane flotation” value is recorded as “did not bind detectably”. Further, the “Tm (thermal unfolding)” value in the data set “CD thermal unfolding” amounted to 43.8±0.2 °C.

Regarding “STIM1 (233-498): truncated mouse STIM1 cytoplasmic fragment, residues 233-498, His-tagged recombinant protein”, the “binding to ORAI1 in membrane flotation” value in the data set with human ORAI1 (65-301) was “clearly bound ORAI”. For the same substance, in the data set “CD thermal unfolding”, the “Tm (thermal unfolding)” value turned out to be 48.5±0.4 °C.

Turning to “STIM1^CT: cytoplasmic region of STIM1, mouse residues 233-685, His-tagged recombinant protein expressed in E coli”, in the data set with human ORAI1 (65-301), the “binding to ORAI1 in membrane flotation” value was “rose with the membranes into the upper part of the gradient”. In addition, the “Tm (thermal unfolding)” value in “CD thermal unfolding” amounted to 47.0±0.3 °C.
